Source: patent publication US7576101B2, “Composition for and treatment of demyelinating diseases and paralysis by administration of remyelinating agents” (Elan Pharmaceuticals, Inc., priority 2003, dated 2009)

Legend:
[1] = target: human α4β1 integrin (human) (UniProt P13612); experiment: cell-based or functional assay
[2] = target: rat α4 integrin on rat lymphocytes (rat); experiment: cell-based or functional assay
[3] = tested on: human lymphocyte binding to rat brain cells; settings: cited from earlier work
VLA-4 = VLA-4 (Homo sapiens, UniProt P13612); settings: cited from earlier work

Question: Which Relative Binding to EAE Vessels (% of Control), human lymphocytes [1] does the source give for AIIB2 (antibody) here?
Answer: Its Relative Binding to EAE Vessels (% of Control), human lymphocytes is 7 % of Control.

Question: What about the Relative Binding to EAE Vessels (% of control), U937 cells [1] of the same molecule?
Answer: Its Relative Binding to EAE Vessels (% of control), U937 cells is 8 % of control.

Question: For HP1/7 (antibody), which Relative Binding to EAE Vessels (% of control), U937 cells [1] is on record?
Answer: The Relative Binding to EAE Vessels (% of control), U937 cells was 338 % of control.

Question: For HP2/1 (antibody), which % Input Binding Jurkat, TNFα-stimulated rat brain EC clone [1] is on record?
Answer: Its % Input Binding Jurkat, TNFα-stimulated rat brain EC clone is 6 % input.

Question: What about the % Input Binding Ramos, TNFα-stimulated rat brain EC clone [1] of the same molecule?
Answer: The % Input Binding Ramos, TNFα-stimulated rat brain EC clone was 2 % input.

Question: What about the % Input Binding U937 to VCAM-1 transfected L cells [1] of the same molecule?
Answer: The % Input Binding U937 to VCAM-1 transfected L cells was 3 % input.

Question: What about the % inhibition of Jurkat binding to FN-coated plate [1] of the same molecule?
Answer: The % inhibition of Jurkat binding to FN-coated plate was 47 % inhibition.

Question: What about the % input bound, Jurkat cells on FN-coated plate (% input bound) [1] of the same molecule?
Answer: Its % input bound, Jurkat cells on FN-coated plate (% input bound) is 42.

Question: What about the % input cells bound, U937 on TNFα-stimulated primary rat brain EC (% input cells bound) [1] of the same molecule?
Answer: Its % input cells bound, U937 on TNFα-stimulated primary rat brain EC (% input cells bound) is 13.

Question: And the Binding of U937 cells to inflamed vessels in sections of EAE brain [1]?
Answer: Its Binding of U937 cells to inflamed vessels in sections of EAE brain is 3.

Question: What about the Relative Binding to EAE Vessels (% of Control), human lymphocytes [1] of the same molecule?
Answer: Its Relative Binding to EAE Vessels (% of Control), human lymphocytes is 1 % of Control.

Question: What about the Relative Binding to EAE Vessels (% of control), U937 cells [1] of the same molecule?
Answer: The Relative Binding to EAE Vessels (% of control), U937 cells was 3 % of control.

Question: And the Relative Binding to EAE Vessels (% of control), U937 cells, tested at 25° C. [1]?
Answer: Its Relative Binding to EAE Vessels (% of control), U937 cells, tested at 25° C. is 5 % of control.

Question: And the Relative Binding to EAE Vessels (% of Control), rat lymphocytes [2]?
Answer: Its Relative Binding to EAE Vessels (% of Control), rat lymphocytes is 18 % of Control.

Question: Which Relative Binding to EAE Vessels (% of control), U937 cells [1] does the source give for P4G9 (antibody) here?
Answer: Its Relative Binding to EAE Vessels (% of control), U937 cells is 151 % of control.

B1: mu MAb 21.6: mouse monoclonal antibody specific for the alpha-4 subunit of VLA-4; donor immunoglobulin for humanization (antibody, V domains shown)
VH: EVQLQQSGAELVKPGASVKLSCTASGFNIKDTYIHCVKQRPEQGLEWIGRIDPANGYTKYDPKFQGKATITADTSSNTAYLQLSSLTSEDTAVYFCAREGYYGNYGVYAMDYWGQGTSVTVSSAK
VL: DIQMTQSPSSLSASLGGKVTITCKTSQDINKYMAWYQHKPGKRPRLLIHYTSALQPGIPSRFSGSGSGRDYSFNISNLEPEDIATYYCLQYDNLWTFGGGTKLEIK
Question: With B1 as the molecule, how does the “human lymphocyte binding to tissue cultures of rat brain cells stimulated with tumor necrosis factor” value [3] read?
Answer: The value was “inhibit”.

Question: And the “binding affinity for VLA-4” value (VLA-4)?
Answer: Its value is “about 10^9 M^−1”.
